# Test results published in patent publication US20130133108A1, “EXTRACTS FROM PIRIN+ AND PIRIN- PLANTS AND USES THEREOF” (priority 2010, published 2013).
# T1: In vitro-translated AtGPA1 pre-incubated with GTPgammaS (permanently activated conformation) (Arabidopsis thaliana, UniProt P18064 1-383)
# T1 construct: Same polypeptide as m3 but a different nucleotide state; also called GPA1-GTPgammaS
# T1 sequence (looked up): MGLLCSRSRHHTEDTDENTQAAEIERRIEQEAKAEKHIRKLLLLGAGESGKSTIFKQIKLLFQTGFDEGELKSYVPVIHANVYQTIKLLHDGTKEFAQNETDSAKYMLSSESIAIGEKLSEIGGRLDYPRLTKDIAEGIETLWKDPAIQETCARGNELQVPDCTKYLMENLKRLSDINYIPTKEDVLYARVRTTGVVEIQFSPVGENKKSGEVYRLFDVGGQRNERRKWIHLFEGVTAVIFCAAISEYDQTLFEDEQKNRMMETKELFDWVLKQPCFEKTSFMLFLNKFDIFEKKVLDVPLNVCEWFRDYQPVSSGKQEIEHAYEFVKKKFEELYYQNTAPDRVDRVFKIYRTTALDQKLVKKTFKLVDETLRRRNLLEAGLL
# T2: In vitro-translated AtGPA1 pre-incubated with GDPalphaS (permanently inactive conformation) (Arabidopsis thaliana, UniProt P18064 1-383)
# T2 construct: Same polypeptide as m2 but a different nucleotide state; also called GPA1-GDPalpha
# T2 sequence (looked up): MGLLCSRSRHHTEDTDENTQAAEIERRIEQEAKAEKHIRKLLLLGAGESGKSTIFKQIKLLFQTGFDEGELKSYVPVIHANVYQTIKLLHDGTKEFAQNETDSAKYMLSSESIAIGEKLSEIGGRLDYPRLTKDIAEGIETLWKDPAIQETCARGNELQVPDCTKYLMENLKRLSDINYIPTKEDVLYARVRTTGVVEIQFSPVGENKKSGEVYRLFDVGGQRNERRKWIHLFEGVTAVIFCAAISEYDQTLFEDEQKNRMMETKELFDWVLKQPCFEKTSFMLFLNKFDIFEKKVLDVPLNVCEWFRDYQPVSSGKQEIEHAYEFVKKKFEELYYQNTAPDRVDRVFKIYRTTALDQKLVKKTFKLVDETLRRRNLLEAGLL
# Legend:
# animal cells = conditions: reported, no source named; cited from earlier work
# [1] = Quercetinase (quercetin 2,3-dioxygenase) activity of in vitro-translated AtPirin1, absorbance spectrum; assay type: biochemical, Arabidopsis thaliana
# Experimental: Full-length PIRIN1 template was prepared, amplified and purified by the methods described (Lapik and Kaufman, Plant Cell. 15(7):1578-90, 2003; Warpeha et al., Plant Physiol. 140:844-55, 2006). Pirin1 proteins were individually produced by coupled in vitro transcription/translation using TNT T7 Coupled Wheat Germ Extract System (Promega; Madison, Wis.) as directed and as modified previously (Warpeha et al., Plant Physiol. 140:844-55, 2006). Translated Pirin1 was subsequently incubated with quercetin in complete darkness in a 26° C. circulating water bath for 15 minutes.
# The quercetin 2,3-dioxygenase activity of Pirin1 was determined as described in Adams and Jai (J. Biol. Chem. 280(31):28675-82, 2005). Briefly, the quercetin 2,3-dioxygenase activity of pirin wase assayed at 295 K for 5 min in a reaction mixture containing 50 mm NaH2PO4, pH 8.0, 300 mm NaCl, 60 μm quercetin in Me2SO, and 18.5 nm enzyme. Activity was observed by following the decrease in the absorbance maximum for quercetin, which occurs at 384 nm at pH 8.0. The inhibitors kojic acid, sodium diethyldithiocarbamate, and 1,10-phenanthroline monohydrochloride were dissolved in Me2SO and added to the reactions at a final concentration of 50 nm.
# (§1) Translated Pirin1 was prepared as described above and in vitro association assays were conducted in assay buffer (pre-incubations included magnesium) at 26° C. (Adams and Jai, J. Biol. Chem. 280(31):28675-82, 2005; Warpeha et al., Plant Physiol. 140:844-55, 2006). GPA1 was incubated with Pirin1 in a 1:1 ratio. “Activated” Pirin1 was achieved by pre-incubation with 100 μM GTPγS (a non-hydrolysable GTP analog). “Inactivated” Pirin1 was achieved by pre-incubation with GDP, or GDPγS (a non-hydrolysable GDP analog). Both pre-incubations occurred overnight in darkness at 10° C.
# [2] = molecular target: T1, In vitro-translated AtGPA1 …; assay: in vitro association/activity assay, GPA1:Pirin1 1:1, interaction inferred from loss of quercetinase activity
# Experimental: as §1
# (§2) The observed AtPirin1 quercetinase activity is regulated through its' interactions with GPA. […] AtGPA1 bound to one of the two non-hydrolyzable analogs was then incubated with AtPirin1 and quercetin in conditions identical to that for FIG. 1.
# [3] = molecular target: T2, In vitro-translated AtGPA1 …; assay: in vitro association/activity assay, GPA1:Pirin1 1:1, association inferred from the quercetin absorbance spectrum
# Experimental: as §1, §2
molecule,measurement,setting,value
O=c1c(O)c(-c2ccc(O)c(O)c2)oc2cc(O)cc(O)c12 [quercetin],concentration considered toxic in animal cells,animal cells,above 20 μM
"Arabidopsis thaliana Pirin1 (AtPirin1), in vitro-translated (enzyme, also called PRN1; Prn1) MTYENNSVPRIVIKKVLAKLEKEGEGAVVRNGITKIDQKLLDPFVLLVEFSFSLSAGFPDHPHRGFESVTYMLQGGIIHKDPKGHKGTIQAGDVQWMTAGRGIIHSEFPEEEVNNGLQLWINLPSTEKMTEPKYKELSSLDIPRAEENGVEVKVIAGDSMGIKSPVYTRTPTMFLDFTLKPGSQTHQTVPESWTAFAYIIEGDEGVFGSLNSSAISAHHVVVFGPGDLVSVWNKSTSRSLRFLLIAGEPIGEPVVQCGPFVMNSQAEIDMAFDDYQNAKNGFEMAKC",quercetinase activity with activated conformation of AtGPA1,"[1]; AtGPA1 pre-incubated with GTPγS, FIG. 2",no quercetinase activity
same,absorbance peak of quercetin with AtPirin1 and inactivated conformation of AtGPA1,"[1]; AtGPA1 pre-incubated with non-hydrolysable GDP analog, FIG. 2",405-410 nm
same,quercetinase activity (cleavage of quercetin),"[1]; AtPirin1 alone with quercetin, 15 min at 26° C., FIG. 1",specific cleavage of quercetin
same,absorbance peak of quercetin after addition of AtPirin1,"[1]; AtPirin1 alone, within 15 min at 26° C., quercetin alone 384 nm",405-410 nm
same,binding result,[2],binds
same,binding result,[3],binds
